Data on one substance can be found in PMC10683481.

In the assay the target is GST-PLIED-M1 (E. coli) (UniProt P0ABQ4).

“Recombinant human MDM2 (17-125) (from UniProt Q00987 17-125) (domain or fragment)” returned an acetylation yield of MDM2 K51 (LC-MS/MS) with MDM2 (1.4 μM), PLIED-M1 (4 μM), TMP-BAHA 1 (10 μM) and acetyl donor 2 (100 μM), 37 °C, 5 h of 70%.
